In article PMC2573054 (The Journal of Biological Chemistry, 2008):
Values belong to the binder of their own block, whether it stands above or below them.

Biological target: His-Rac2 (hexahistidine-tagged Rac2^G12V, aa 2-177) (human, UniProt P15153 2-177, G12V)
Assay: SPR

Kd: 17 µM
koff: 0.0016 s⁻¹
kon: 93.8 M⁻¹ s⁻¹
B1: PLCγ2 spPH (aa 471-913, Δ516-841), wild type (domain or fragment)
chain: GGSGGSKKDEHKQQGELYMWDSIDQKWTRHYCAIADAKLSFSDDIEQTMEEDNPLGSLCRGILDLNTYNVVKAPQGKNQKSFVFILEPKQQGDPPVEFATDRVEELFEWFQSIREITWKIDTK

Kd: 3.9 µM
koff: 0.0031 s⁻¹
kon: 806 M⁻¹ s⁻¹
B2: c-myc epitope-tagged human PLCγ2 (PLCγ2-222, wild type) (enzyme)
chain: MSTTVNVDSLAEYEKSQIKRALELGTVMTVFSFRKSTPERRTVQVIMETRQVAWSKTADKIEGFLDIMEIKEIRPGKNSKDFERAKAVRQKEDCCFTILYGTQFVLSTLSLAADSKEDAVNWLSGLKILHQEAMNASTPTIIESWLRKQIYSVDQTRRNSISLRELKTILPLINFKVSSAKFLKDKFVEIGAHKDELSFEQFHLFYKKLMFEQQKSILDEFKKDSSVFILGNTDRPDASAVYLHDFQRFLIHEQQEHWAQDLNKVRERMTKFIDDTMRETAEPFLFVDEFLTYLFSRENSIWDEKYDAVDMQDMNNPLSHYWISSSHNTYLTGDQLRSESSPEAYIRCLRMGCRCIELDCWDGPDGKPVIYHGWTRTTKIKFDDVVQAIKDHAFVTSSFPVILSIEEHCSVEQQRHMAKAFKEVFGDLLLTKPTEASADQLPSPSQLREKIIIKHKKLGPRGDVDVNMEDKKDEHKQQGELYMWDSIDQKWTRHYCAIADAKLSFSDDIEQTMEEEVPQDIPPTELHFGEKWFHKKVEKRTSAEKLLQEYCMETGGKDGTFLVRESETFPNDYTLSFWRSGRVQHCRIRSTMEGGTLKYYLTDNLTFSSIYALIQHYRETHLRCAEFELRLTDPVPNPNPHESKPWYYDSLSRGEAEDMLMRIPRDGAFLIRKREGSDSYAITFRARGKVKHCRINRDGRHFVLGTSAYFESLVELVSYYEKHSLYRKMRLRYPVTPELLERYNMERDINSLYDVSRMYVDPSEINPSMPQRTVKALYDYKAKRSDELSFCRGALIHNVSKEPGGWWKGDYGTRIQQYFPSNYVEDISTADFEELEKQIIEDNPLGSLCRGILDLNTYNVVKAPQGKNQKSFVFILEPKQQGDPPVEFATDRVEELFEWFQSIREITWKIDTKENNMKYWEKNQSIAIELSDLVVYCKPTSKTKDNLENPDFREIRSFVETKADSIIRQKPVDLLKYNQKGLTRVYPKGQRVDSSNYDPFRLWLCGSQMVALNFQTADKYMQMNHALFSLNGRTGYVLQPESMRTEKYDPMPPESQRKILMTLTVKVLGARHLPKLGRSIACPFVEVEICGAEYDNNKFKTTVVNDNGLSPIWAPTQEKVTFEIYDPNLAFLRFVVYEEDMFSDPNFLAHATYPIKAVKSGFRSVPLKNGYSEDIELASLLVFCEMRPVLESEEELYSSCRQLRRRQEELNNQLFLYDTHQNLRNANRDALVKEFSVNENQLQLYQEKCNKRLREKRVSNSKFYS

Kd: 5.8 µM
koff: 0.0025 s⁻¹
kon: 434 M⁻¹ s⁻¹
B3: PLCγ1-122 (PLCγ1 with both portions of the split PH domain of PLCγ2), c-myc epitope-tagged (enzyme)
chain: MAGAASPCANGCGPGAPSDAEVLHLCRSLEVGTVMTLFYSKKSQRPERKTFQVKLETRQITWSRGADKIEGAIDIREIKEIRPGKTSRDFDRYQEDPAFRPDQSHCFVILYGMEFRLKTLSLQATSEDEVNMWIKGLTWLMEDTLQAPTPLQIERWLRKQFYSVDRNREDRISAKDLKNMLSQVNYRVPNMRFLRERLTDLEQRSGDITYGQFAQLYRSLMYSAQKTMDLPFLEASTLRAGERPELCRVSLPEFQQFLLDYQGELWAVDRLQVQEFMLSFLRDPLREIEEPYFFLDEFVTFLFSKENSVWNSQLDAVCPDTMNNPLSHYWISSSHNTYLTGDQFSSESSLEAYARCLRMGCRCIELDCWDGPDGMPVIYHGHTLTTKIKFSDVLHTIKEHAFVASEYPVILSIEDHCSIAQQRNMAQYFKKVLGDTLLTKPVEISADGLPSPNQLKRKILIKHKKLAEGSAYEEVPTSMMYMEDKKDEHKQQGELYMWDSIDQKWTRHYCAIADAKLSFSDDIEQTMGNEDEEEPKEVSSSTELHSNEKWFHGKLGAGRDGRHIAERLLTEYCIETGAPDGSFLVRESETFVGDYTLSFWRNGKVQHCRIHSRQDAGTPKFFLTDNLVFDSLYDLITHYQQVPLRCNEFEMRLSEPVPQTNAHESKEWYHASLTRAQAEHMLMRVPRDGAFLVRKRNEPNSYAISFRAEGKIKHCRVQQEGQTVMLGNSEFDSLVDLISYYEKHPLYRKMKLRYPINEEALEKIGTAEPDYGALYEGRNPGFYVEANPMPTFKCAVKALFDYKAQREDELTFIKSAIIQNVEKQEGGWWRGDYGGKKQLWFPSNYVEEMVNPVALEPEREHLDENSPLGDLCRGILDLNTYNVVKAPQGKNQKSFVFILEPKQQGDPPVEFATDRVEELFEWFQSIREITWKIDTKETEGKIMERRKKIALELSELVVYCRPVPFDEEKIGTERACYRDMSSFPETKAEKYVNKAKGKKFLQYNRLQLSRIYPKGQRLDSSNYDPLPMWICGSQLVALNFQTPDKPMQMNQALFMTGRHCGYVLQPSTMRDEAFDPFDKSSLRGLEPCAISIEVLGARHLPKNGRGIVCPFVEIEVAGAEYDSTKQKTEFVVDNGLNPVWPAKPFHFQISNPEFAFLRFVVYEEDMFSDQNFLAQATFPVKGLKTGYRAVPLKNNYSEDLELASLLIKIDIFPAKQENGDLSPFSGTSLRERGSDASGQLFHGRAREGSFESRYQQPFEDFRISQEHLADHFDSRERRAPRRTRVNGDNRL
